Series [1] addresses MtrR R44A (Neisseria gonorrhoeae, UniProt P39897 1-210, R44A). The series can be described thus: fluorescence polarization; FP: 20 mM Tris-HCl pH 7.5, 100 mM NaCl, 2.5% glycerol, 1 mM TCEP, 1 ug BSA, 1 ug poly(dI-dC), 1 nM 5'-fluorescein DNA; temperature not stated; MtrR concentration as dimer. The note with it: protein: recombinant; tags: N-terminal His6 removed by TEV (pMCSG7); chain copies: 2; label: 5'-fluorescein.

The target of series [2] is MtrR H105Y (Neisseria gonorrhoeae, UniProt P39897 1-210, H105Y). The series is described as above. The note with it: protein: recombinant; tags: N-terminal His6 removed by TEV (pMCSG7); chain copies: 2; label: 5'-fluorescein.
The target of series [3] is MtrR A39T (Neisseria gonorrhoeae, UniProt P39897 1-210, A39T). The series is described as above. The note with it: protein: recombinant; tags: N-terminal His6 removed by TEV (pMCSG7); chain copies: 2; label: 5'-fluorescein.
The target in series [4] is MtrR G45A (Neisseria gonorrhoeae, UniProt P39897 1-210, G45A). The description is as above. The note with it: protein: recombinant; tags: N-terminal His6 removed by TEV (pMCSG7); chain copies: 2; label: 5'-fluorescein.
Series [5] concerns the target MtrR T43A (Neisseria gonorrhoeae, UniProt P39897 1-210, T43A). The description is as above. The note with it: protein: recombinant; tags: N-terminal His6 removed by TEV (pMCSG7); chain copies: 2; label: 5'-fluorescein.
Series [6] addresses MtrR G45D (Neisseria gonorrhoeae, UniProt P39897 1-210, G45D). The description is as above. The settings on record: protein: recombinant; tags: N-terminal His6 removed by TEV (pMCSG7); chain copies: 2; label: 5'-fluorescein.
The target of series [7] is T1, MtrR WT (Neisseria gonorrhoeae, UniProt P39897 1-210). The series can be described thus: fluorescence polarization; nonspecific binding only; FP: 20 mM Tris-HCl pH 7.5, 100 mM NaCl, 2.5% glycerol, 1 mM TCEP, 1 ug BSA, 1 ug poly(dI-dC), 1 nM 5'-fluorescein DNA; temperature not stated; MtrR concentration as dimer. The settings on record: protein: recombinant; tags: N-terminal His6 removed by TEV (pMCSG7); chain copies: 2; label: 5'-fluorescein.

The target in series [8] is Semet-MtrR WT (Neisseria gonorrhoeae, UniProt P39897 1-210). The series can be described thus: X-ray crystallography; 2.6 A; 200 mM calcium acetate; FP: 20 mM Tris-HCl pH 7.5, 100 mM NaCl, 2.5% glycerol, 1 mM TCEP, 1 ug BSA, 1 ug poly(dI-dC), 1 nM 5'-fluorescein DNA; temperature not stated; MtrR concentration as dimer. The note with it: protein: recombinant; tags: N-terminal His6 removed by TEV (pMCSG7); chain copies: 2.

Series [9] concerns the target T1, MtrR WT. Briefly: fluorescence polarization; FP: 20 mM Tris-HCl pH 7.5, 100 mM NaCl, 2.5% glycerol, 1 mM TCEP, 1 ug BSA, 1 ug poly(dI-dC), 1 nM 5'-fluorescein DNA; temperature not stated; MtrR concentration as dimer. The note with it: protein: recombinant; tags: N-terminal His6 removed by TEV (pMCSG7); chain copies: 2; label: 5'-fluorescein.
For series [10], the target named is MtrR H50A (Neisseria gonorrhoeae, UniProt P39897 1-210, H50A). The description is as above. The settings on record: protein: recombinant; tags: N-terminal His6 removed by TEV (pMCSG7); chain copies: 2; label: 5'-fluorescein.
Series [11] has as its target MtrR W49F (Neisseria gonorrhoeae, UniProt P39897 1-210, W49F). The description is as above. The note with it: protein: recombinant; tags: N-terminal His6 removed by TEV (pMCSG7); chain copies: 2; label: 5'-fluorescein.
Series [12] addresses MtrR D79N (Neisseria gonorrhoeae, UniProt P39897 1-210, D79N). The description is as above. The note with it: protein: recombinant; tags: N-terminal His6 removed by TEV (pMCSG7); chain copies: 2; label: 5'-fluorescein.
For series [13], the target named is MtrR T11A (Neisseria gonorrhoeae, UniProt P39897 1-210, T11A). The description is as above. The settings on record: protein: recombinant; tags: N-terminal His6 removed by TEV (pMCSG7); chain copies: 2; label: 5'-fluorescein.
Series [14] addresses MtrR T43S (Neisseria gonorrhoeae, UniProt P39897 1-210, T43S). Described as above. The settings on record: protein: recombinant; tags: N-terminal His6 removed by TEV (pMCSG7); chain copies: 2; label: 5'-fluorescein.

B1: GpY 27mer (dsDNA)
DNA 1: TACATAGCTGGTGTTATGTAAACGGCC
DNA 2: GGCCGTTTACATAACACCAGCTATGTA
With B1, the binding result in series [1], in [3], in series [4], in [5], in series [6] and in [7] was “no binding” throughout. In addition, in series [2], the Kd worked out at 860 ± 80 nM.

B2: rpoH 21mer (crystal) (dsDNA)
DNA 1: TACATACGTGGTTGTATGTAA
DNA 2: TTACATACAACCACGTATGTA
B2: the binding result in [8] is recorded as “binds”.

B3: mtrCDE 27mer (dsDNA)
DNA 1: TTTTTATCCGTGCAATCGTGTATGTAT
DNA 2: ATACATACACGATTGCACGGATAAAAA
As for B3, the Kd in series [9] worked out at 43 ± 4 nM.

B4: emrAB 22mer (dsDNA)
DNA 1: AGTCGGCTATATCATTGCTGTC
DNA 2: GACAGCAATGATATAGCCGACT
Consider B4, for which the binding result in series [1], in [3], in series [4], in series [5], in series [6] and in [7] was “no binding” throughout.

B5: mtrCDE 21mer (dsDNA)
DNA 1: TATCCGTGCAATCGTGTATGT
DNA 2: ACATACACGATTGCACGGATA
For the molecule B5, the Kd in [10] amounted to 990 ± 100 nM; in series [9] it was 50 ± 4 nM; in series [11], 380 ± 44 nM; in [2], 640 ± 130 nM; in [3], 170 ± 11 nM; in series [13], 1080 ± 93 nM. Besides, the binding result in series [1], in series [12], in series [5] and in series [6] was “no binding” in each case.

B6: rpoH 27mer (dsDNA)
DNA 1: TACATACGTGGTTGTATGTAAACGGCC
DNA 2: GGCCGTTTACATACAACCACGTATGTA
For B6, the Kd in series [14] was 860 ± 180 nM; in series [10], 376 ± 35 nM; in [9], 8 ± 1 nM; in [11] it was 53 ± 3 nM; in series [2], 340 ± 57 nM; in series [3], 31 ± 3 nM. In series [13], the Kd worked out at 441 ± 37 nM. Moreover, the binding result in series [1], in [5] and in [6] was “no binding” each time.

B7: ApY 27mer (dsDNA)
DNA 1: TACAATCGTGGTTGATTGTAAACGGCC
DNA 2: GGCCGTTTACAATCAACCACGATTGTA
B7: in [9], the Kd stood at 293 ± 24 nM.

These data come from PMC8053128, “Structures of Neisseria gonorrhoeae MtrR-operator complexes reveal molecular mechanisms of DNA recognition and antibiotic resistance-conferring clinical mutations”.
